# Assay results: the DeepSol protein solubility set
# Assay: soluble on expression in E. coli; label from the status in PepcDB or PDB records
row,Sequence,soluble on expression in E. coli
1,MSNEMKILLANPRGFCAGVDRAISIVERALELYQPPIYVRHEVVHNRFVVEGLKQRGAIFVEELHEVPDNNIVIFSAHGVSQAVRQEAKQRDLTVFDATCPLVTKVHMEVARASRRNMEVVLIGHAGHPEVEGTMGQYSSETGGMYLVETPADVEKLKAIVKDPSDLHYVSQTTLSVDETADVIEELRRVFPDIQGPRKDDICYATQNRQDAVRELAGDVDVMVVVGSKNSSNSTRLKELAEKLGTPGYLTDCPEDIKPEWFEGKTKVGVTAGASAPEELVNQILERIKELVGARSVDEVLGREENMFFEVPKELQIKQVD,not soluble
2,GSLTTISSILSLKREKPDNLAIILQIDFTKLKEEDSLIVVYNSLKALTIKFARLQFCFVDRNNYVLDYGSVLHKIDSLDSISNLKSKSSSTQFSPIWLKNTLYPENIHEHLGIVAVSNSNMEAKKSILFQDYRCFTSFGRRRPNELKIKVGYLNVDYSDKIDELVEASSWTFVLETLCYSFGLSFDEHDDDDEEDN,soluble
3,MGSDKIHHHHHHMPVFYPAVQGSLPMGGQESLPLRRLKSFQPLGRLTDDQLVLLASRAERRTHGPGQRVMERGVRDGLDYFLISGAVELQSVDGRKSTIEAETDKALNPVARLQPRMYDVTAVKPCEFLVIEQEVLNQMLRAAPISQVEMDSSDHDEDQSEEHHLLMEFYSELRSNQVQLPSVPDVAWKVRRVVDREDSSATEVASAVSADPAMAAKLVRSCNSPLYRGFSDVRNVREAVVRLGMRTTRQLVTVFAMREVFKTRRAPLQKEMEQLWRHSREVAALCWVLADHATRIDPEEALLAGLLHDIGVVPVLVQAEHHVNLFADDRNLHHAIDELRADVGCAVLENWAFPKAFVEAVRHAEDWHHECRETAPQLVDVVIVAQLHSMIGSSQNEGLPAFDQVPAWRRLGELELNASRSLQLLSEARERVDEVQKLLSIR,not soluble
4,MGSDKIHHHHHHMYQELPPLPWLRAFDASARLGNFTLAAQELGLTPSAVSYQVRGLEATLGHKLFVRKQKSLFLTRLGQAYLPVVSKAFGDLEATTSNLFGKSAAQEITLRCLSSLNMLWLAPRLSRFQAQHPDCRLRVLSALWGETPEALQIDIDIRYGNGSWSDGEVTRLMHHEVLAVCAPALHPGPDPQAIASCPLIEVIGVTDTWHHFFALHGLAPPSSGPALKVDQSLIALELATRGMGVALIARVFAQRYLESGALVEATDLALPAREGHYIVQPEARNHFRPEVAALKDWLLQEAAQTGC,not soluble
5,MEEELQHSHCVNCVSRRCMTRPEPGISCDLIGCPLVCGAVFHSCKADEHRLLCPFERVPCLNSDFGCPFTMARNKVAEHLEMCPASV,soluble
6,MSQRTSEENRYEQLHRFAAKIHSTMQIDDVLEEIICTLQNVYPAFTYHLLLSHDNHVCGNLPIKTLALDESEGQPAALRAFLTGQVQCEETAAPPRSVLYAPIKGVQAVYGVIQIIAPYAAPFPKREINFISLLAGTAGRALENAKLYEQSRRLEHHHHHH,soluble
7,SAESSKLSATTVEAAPAMIKAKDVISPSEKEESDQTEITKVSVLKNLDEKEMIKEFADRLQRLEAKVDLLVTKADLLAIKADIQELLISAKGEKVPAMKTSAKASSESDDSYMDTSSEDESSSAEEPVNKPAASAAKPATKDSLFSAGFKPAAKDSLFSAGFKPDSLFSAGFEPAAKDSLFSAGFKPGSLFSAGFEPAAKDSLFSAGFKPDSLFSVGVKPAAKDSLFSVGVNGRSFSVTGFDASLPVDDIKSALSKYFSSFGEITRVFVPPSHGTGGSLGYAYIDLKEGAEKALELGRHDVGGWDLVVGKAEPIRSGSTWPFPGRCGNQGRCTFC,soluble
8,MKKPFSKLFGLKNKDDIIGHIEEDRNSNVESIQIERIVPNRYQPRQVFEPNKIKELAESIHEHGLLQPIVVRPIEEDMFEIIAGERRFRAIQSLNLPQADVIIRDMDDEETAVVALIENIQRENLSVVEEAEAYKKLLEIGDTTQSELAKSLGKSQSFIANKLRLLKLAPKVLLRLREGKITERHARAVLSLSDSEQEALIEQVIAQKLNVKQTEDRVRQKTGPEKVKAQNLRFAQDVTQARDEVGKSIQAIQQTGLHVEHKDKDHEDYYEIKIRIYKR,not soluble
9,MSLNELPEFEDYVVLTQQQNQNYKIVQQFNNFDKAILLGTSTFFEGFDFQANGIKCVMIAKLPFMNKHNAKYWLMDSEFTSTFKEYVLPDAVTRFRQGLGRLIRNENDRGIIVSFDDRLINSNYKNFFEQTLENYRQKKGDIQQFGKLLRQIQKEGHHHHHH,not soluble
10,MSLDIRGIGYLGFESPNIEAWRSYGPEVLGLAIAPSPEDEPDALYLKMDDRRYRLAFQPGPIDKLAYIGWECVNRIAFEKAVKKLQDAGIAVEMGSDDLKARRAVRDVVRFKDPVGYQYELFYGQKGEPDSFVPGRRHGGFNTYGRGFGHVVVMTPEYGPELDDFLINIMGFQWYGSGAGKGKTGFYRAGLNNLTSHDIGYGHAPGRMGIQHIGLLTGDLRDVGETWDIVNKRQIQVQMTLGQHTQDPHFSFYHFSPSGFAVEVIAETHPWPGDPFELNAERLSYWGHQLVGPILGTEGHHHHHH,not soluble
11,MGSDKIHHHHHHMAQQKDTKKITVFTSTYNRAYILPKLYESLKLQTCKDFEWLVVDDGSEDETSELFDKWLEEDVIEIAYFKKKNGGKHRAINFAASKAQGQLFFIVDSDDYLTLTAVEIICKEWEKVENKKQSAGLCFRKICYNTGKMIGADFPVSPIDASSLTICYKWKIYEDKAEVFKTELIRRFPFPEIEGEKFISEAIVWNKISVCDSPLLRCVNTGIYMCEYLPDGLTANFIKLMKRNPKGGILYYKSLFNLSCIRKNPIDILKISLRLSQCIIYSFLRCFGSYL,not soluble
12,MSSAGVALSPVRSEPLIMPLVRANSCLDSYPDDTIMIYLTLPGSVIPMRVLESDSIESVKLRIQSYRGFVVRNQKLVFGGRELARSNSNMRDYGVSEGNILHLVLKLSDLQVLDVKTTCGKHCRFHVERGRNIGYVKKQISKKRGDFVDPDEQEILYEGEKLEDQSLINDICRNDDSVLHLLVRRSAKVRVKPVEKNFELSIVAPQAKDKKGREAKSIVPPKKLSLEPVVVNSKAKVPLVVKDMIQSASDGLKSGNSPVRSSEGTGGAYFMQGPSGNKFVGVFKPIDEEPMAENNPQGLPLSPNGEGLKKGTKVGEGALREVAAYILDHPKSGNKSMFGEEIGFAGVPPTAMIECLHPGFNHPKGIKTKIGSLQMFTENDGSCEDMGPLSFPVEEVHKISVLDIRLANADRHGGNILMTKDESGKLVLVPIDHGYCLPESFEDCTFEWLYWPQARKPYSAETQEYIRSLDAEEDIDLLKFHGWKMPAETAQTLRISTMLLKKGVERGLTAFEIGTIMCRETLSKKSLVEEMVEEAQEAVLPGTSEAAFLEALSDVMDYHLDHSQEH,not soluble
13,MPEGFDAYCICTGTPTARDLSIPGRELKGIHFALEMLAQQNRILEGQTFPKDKLVNAKGKKVLVIGGGDTGSDCIGTSVRQGATSVTQIEIMPKPPVGHNPSTPWPQWPVVFKTTSSHEEGCTRRWCLTSNQFLGKNGKVTGVEVEEVEWTPATDGGRPTMNLTGKKEVIEADMVLLAMGFLKPEQPKFAENVFLAGDAATGASLVVRAMAGGRKAAADIDHYLEHHHHHH,not soluble
14,MKLSLRQLQIFCAVAQHGSTTSAAISVSLSQSATSAALNELESALDTRLFDRVGKRLVLNDNGHALLPQARRMLENAQQIEASFLPGHAGLKTRLRVGCSTTIGNYVLPLILGELRQSTPHLRVDVDMANSMAIARRVADFEIDMGLIEGPCHLPELSAEPWLIDELLIAAGQRHPLALKQQVTLDDLRTAEWLLREPGSGTREEVEQLLLRHLHDLAETRQIGSSEAIKHTLAQGIGISCLSRWVVRDLLASEVLVELPHALPALTRRFFLIRHRDKYISPGLERFWEKCSQFVSQE,not soluble
15,MSCSHYEERVEKVELPQLKVNGMAIGEDLLARELQYHPADSYALALEAACRALIVRQLLLQRADALGIEARCEDGETPEEARIRQLLEEEVQVPEADEDACRTWYAANPGRLLGPWRLQLRHVLLACAPDDLEGRETARKQAAELLDELRGHPERFVDLARRFSACPSKESGGDLGWIEPGQTVPEFEKRLLRRAPGLLEHPLESRYGLHVVELLAREGGEPLDFDAARAQIAAHLQAQVLQRAVGQYIGVLAGD,not soluble
16,MGSDKIHHHHHHMDGGFMQKKVLLVGLGVMGSRIAANFASAGKLAGVYDRNVDKAKNTASMLKVGFYRDLGEAVKNSDIIVTMLYDDRSVKEVYSQMEQGVQGKVFIDMSTISPDTSIEIAKRIKEKGGKMYDAPVIGTSIAVEKKALVVLVGGDLSGYDEVRDLISATANQVVYMGDNGSGLYAKLVNNLFLGSYMASLAEAVRFGRKNGIPDSTISDVLTKYSSARSPTSDLKVPKMISEDYSVQFSIKNMLKDMEIVDRMASEKRIALPVASLALQLFRYLMDSGYGEEDIAAIYRALR,not soluble
17,MGHHHHHHSHMGLQQEISLQPWCHHPAESCQTTTDMTERLSAEQIKEYKGVFEMFDEEGNGEVKTGELEWLMSLLGINPTKSELASMAKDVDRDNKGFFNCDGFLALMGVYHEKAQNQESELRAAFRVFDKEGKGYIDWNTLKYVLMNAGEPLNEVEAEQMMKEADKDGDRTIDYEEFVAMMTGESFKLIQ,soluble
18,MKSILEQLSSITVVVADTGDLDAIKKFQPRDATTNPSLILAAAKNPDYIKLIDQALESSRKSLPAGFSESELIKETIDQVSVFFGKEILNLISGRVSTEVDARLSFDTEATVTKARKLINHYKSFGINKERILIKIASTWEGIKAAEILEKEGIKCNLTLLFNFCQAVACANAKITLISPFVGRILDWHKAKTGKDNFAGCEDPGVISVTKIYNYFKEKGFKTEVMGASFRNIDEIKELAGCDLLTIAPKFLDELNREEGELIKKLDEDTQSQSSIDYKFDEKDFRLSMLEDQMASEKLSEGITGFSKAIEELEELLLKRLSEINNQKLISTT,not soluble
19,MAHHHHHHMSKEKLAKEKIEKGQHYEAHQLIKSLINRKLQKNQVSSCMSIIFYFSQKMAKAEQYVLLCDLMYQCCTILTQHNIKFSEEYAKKIIEIFNLCPPNSTEEKYKFMNKCILWSTNDDEIFGYLDFHKAIAYAYFEDKKYSLAHNHFIYLEDNEILYKIICLWQKEGYPSESDFFILRTTLCLLVLDKFEQALDLINKFEPNLDRKDVPLPVQIAYLITCSCIYRSAPLYEDVKYKYRLILNYDPDFQKYIGILDDVLFNKRKHDLFSMFQNIFG,not soluble
20,MDFAVMKQVKNTGLLQSEELCQYILRTSVYPREAGFLKELREANESHPDSYMSTSPLAGQLMSFVLKLVNAKKTIEVGVFTGYSLLLTALSIPDDGKITAIDFDREAYEIGLPFIRKAGVEHKINFIESDAMLALDNLLQGQESEGSYDFGFVDADKPNYIKYHERLMKLVKVGGIVAYDNTLWGGTVAQPESEVPDFMKENREAVIELNKLLAADPRIEIVHLPLGDGITFCRRLY,soluble
21,SLQEAETAARLHEVHGSWQLACAAAAKKDSADAASSTGGETKPPCAIAQVQLEEKTRKLVVSVEFRLDDAATPDRLNGTMVLPFGLAVTKLFSVKSGNMRLQEVQVSTCLPVGCIVSFTPFIELVSALKAEQTLTIEAPDLQGRIVSFQLQGKGFPEALKRLGEVR,not soluble
22,MSLAATPRKLSSKEVAALVGNLMEASESTSLENGLEVRPYAFGENELNQLGDYHALRIINERFCRTARDVFLPMLRLQPRISSFPPEVRSFDDYRSSQDNFVSITASRIEELRGNQMIVIPPPFISLLTDSYYGGQIRHVPTTRTEFTATEERCIELVTDRLNVALQVAWRDLMALTFTVVSREESMQFASFVDGEDMVVNCSFMVQLPNTEPASFDILYPLQTLKPISSQLRSRMQSDFVDDDRSWREKLERAILSIPLTLSARLCEPEVPLRQLMQMQPGDVLPVHLTEALSLLVEGQPIFEAAPGERGGQAALNLTRRHVRGEGHHHHHH,soluble
